Consider 10 sequences from the Immune Epitope Database (IEDB).

The target in one experiment is HLA-A*01:01. Briefly: IEDB peptide-MHC binding, purified MHC/direct/fluorescence; filed as Kd, often an IC50 or EC50 that approximates it; ≥ and ≤ were set here for values at or beyond the usual limits of such assays.
For the next experiment, the target named is HLA-B*15:42. Briefly: IEDB peptide-MHC binding, purified MHC/competitive/fluorescence; filed as Kd, often an IC50 or EC50 that approximates it; ≥ and ≤ were set here for values at or beyond the usual limits of such assays.
In the next experiment the target is HLA-B*45:06. The experiment is described as above.
Another experiment addresses HLA-B*83:01. The description is as above.
The target in experiment [1] is HLA-A*02:01. Briefly: IEDB peptide-MHC binding, purified MHC/direct/fluorescence; filed as Kd, often an IC50 or EC50 that approximates it; ≥ and ≤ were set here for values at or beyond the usual limits of such assays.
Another experiment addresses HLA-A*02:12. The experiment is described as above.
The target in another experiment is HLA-A*02:16. Described as above. The note with it: source organism: Listeria monocytogenes serotype 4b str. H7858.
Experiment [2] concerns the target HLA-A*69:01. Described as above.
Experiment [3] concerns the target HLA-B*18:01. The experiment is described as above. The note with it: source organism: Mammarenavirus lassaense.
The target of the next experiment is HLA-B*40:01. The description is as above.
The target in the next experiment is HLA-B*15:17. Described as above.
For experiment [4], the target named is HLA-B*57:01. The experiment is described as above.
The next experiment concerns the target HLA-B*58:01. The description is as above.
The target of experiment [5] is HLA-A*03:01. Briefly: IEDB peptide-MHC binding, purified MHC/competitive/radioactivity; filed as Kd, often an IC50 or EC50 that approximates it; ≥ and ≤ were set here for values at or beyond the usual limits of such assays. The note with it: source organism: Vaccinia virus WR.
The target in experiment [6] is HLA-A*11:01. Described as above. The note with it: source organism: Vaccinia virus WR.
Experiment [7] has as its target HLA-A*31:01. Described as above. The note with it: source organism: Vaccinia virus WR.
A further experiment deals with HLA-A*33:01. The description is as above. The note with it: source organism: Vaccinia virus WR.
The target of another experiment is HLA-A*68:01. The experiment is described as above. The note with it: source organism: Vaccinia virus WR.
Experiment [8] addresses HLA-A*11:01. Briefly: IEDB peptide-MHC binding, purified MHC/direct/fluorescence; filed as Kd, often an IC50 or EC50 that approximates it; ≥ and ≤ were set here for values at or beyond the usual limits of such assays.
The next experiment has as its target HLA-B*07:02. Described as above.
Experiment [9] has as its target HLA-B*51:01. The experiment is described as above.
For experiment [10], the target named is HLA-A*03:01. The description is as above. The note with it: source organism: Giardia lamblia ATCC 50803.
The target of experiment [11] is HLA-A*31:01. The description is as above. The note with it: source organism: Giardia lamblia ATCC 50803.
A further experiment deals with HLA-B*15:01. The experiment is described as above.
The target in the next experiment is HLA-B*27:05. The experiment is described as above. The note with it: source organism: Giardia lamblia ATCC 50803.
Experiment [12] addresses HLA-B*46:01. The description is as above. The note with it: source organism: Giardia lamblia ATCC 50803.
For the next experiment, the target named is HLA-B*48:01. Described as above. The note with it: source organism: Giardia lamblia ATCC 50803.
The target in a further experiment is HLA-A*02:03. The description is as above. The note with it: source organism: Cryptosporidium parvum Iowa II.
Another experiment addresses HLA-A*02:19. The experiment is described as above. The note with it: source organism: Cryptosporidium parvum Iowa II.
A further experiment addresses HLA-A*68:02. The experiment is described as above. The note with it: source organism: Cryptosporidium parvum Iowa II.
For experiment [13], the target named is HLA-A*02:01. The experiment in a line: IEDB peptide-MHC binding, purified MHC/competitive/fluorescence; filed as Kd, often an IC50 or EC50 that approximates it; ≥ and ≤ were set here for values at or beyond the usual limits of such assays. The note with it: source organism: Cryptosporidium parvum Iowa II.
A further experiment addresses HLA-A*26:01. The description is as above. The note with it: source organism: Cryptosporidium parvum Iowa II.
In experiment [14] the target is HLA-A*69:01. Described as above. The note with it: source organism: Cryptosporidium parvum Iowa II.
The target in experiment [15] is HLA-B*18:01. The experiment is described as above. The note with it: source organism: Cryptosporidium parvum Iowa II.
A further experiment deals with HLA-B*27:03. The experiment is described as above. The note with it: source organism: Cryptosporidium parvum Iowa II.
The target of another experiment is HLA-B*39:01. Described as above. The note with it: source organism: Cryptosporidium parvum Iowa II.
Experiment [16] deals with HLA-B*46:01. The description is as above. The note with it: source organism: Cryptosporidium parvum Iowa II.
Experiment [17] addresses HLA-B*51:01. The experiment is described as above. The note with it: source organism: Cryptosporidium parvum Iowa II.
Experiment [18] deals with HLA-B*57:01. Described as above. The note with it: source organism: Cryptosporidium parvum Iowa II.
[19] abbreviates: source organism: Camelpox virus M-96.
Where [20] appears, read: source organism: Yaba-like disease virus.
The mark [21] stands for this setting: source organism: Listeria monocytogenes.
Setting [22] is: source organism: Listeria monocytogenes serotype 4b str. H7858.
[23] abbreviates: source organism: Mammarenavirus lassaense.
Setting [24] is: source organism: Human immunodeficiency virus 1.
Where [25] appears, read: source organism: Giardia lamblia ATCC 50803.
Where [26] appears, read: source organism: Cryptosporidium parvum Iowa II.
Where [27] appears, read: source organism: Orthohantavirus dobravaense.

Where only a bound is given, the exact number is not on record here.

With NTDNKFISY, the Kd in the experiment with HLA-A*01:01 (setting [19]) was not above 0.001 µM; with HLA-B*15:42 (setting [20]) it was not below 5 µM; with HLA-B*45:06 (setting [20]), not below 5 µM; in the experiment with HLA-B*83:01 (setting [20]), not below 5 µM.

SQDEVLFLV: the Kd was 0.0045 µM with HLA-A*02:01 [1] (setting [21]), 0.004 µM with HLA-A*02:12 (setting [22]), not above 0.001 µM with HLA-A*02:16 and 0.0353 µM with HLA-A*69:01 [2] (setting [21]).

With SERFINYAI, the Kd is 0.033 µM with HLA-B*18:01 [3]; 0.0525 µM with HLA-B*40:01 (setting [23]); not below 5 µM with HLA-B*15:42 (setting [23]); not below 5 µM with HLA-B*45:06 (setting [23]); not below 5 µM with HLA-B*83:01 (setting [23]).

In the case of KSISSIFGY, the Kd in the experiment with HLA-B*15:17 (setting [19]) was not above 0.001 µM; with HLA-B*57:01 [4] (setting [19]) it was 0.037 µM; with HLA-B*58:01 (setting [19]), 0.0015 µM; with HLA-A*03:01 [5], 0.0474 µM; in the experiment with HLA-A*11:01 [6] it was 0.00327 µM; with HLA-A*31:01 [7], 0.0866 µM. The Kd with HLA-A*33:01 was not below 25.2 µM; in the experiment with HLA-A*68:01, 6.74 µM.

On to RPMTYKAAL, for which the Kd was 17.6 µM in the experiment with HLA-A*11:01 [8] (setting [24]); 11 µM in the experiment with HLA-A*69:01 [2] (setting [24]); 0.0396 µM with HLA-B*07:02 (setting [24]); not below 5 µM with HLA-B*15:42 (setting [24]); not below 5 µM with HLA-B*45:06 (setting [24]); 0.0987 µM with HLA-B*83:01 (setting [24]).

For the sequence CGRSCTSSL, the figures for the dissociation constant Kd in the experiment with HLA-B*07:02 (setting [23]) and with HLA-B*51:01 [9] (setting [23]) were 0.558 µM and not below 20 µM, respectively.

In the case of DSPATLSAY, the Kd in the experiment with HLA-A*01:01 (setting [25]), with HLA-A*02:01 [1] (setting [25]), with HLA-A*03:01 [10], in the experiment with HLA-A*11:01 [8] (setting [25]), in the experiment with HLA-A*31:01 [11] and in the experiment with HLA-B*15:01 (setting [25]) was not below 20 µM each time. Also, the Kd with HLA-B*15:17 (setting [25]) is 5.53 µM; in the experiment with HLA-B*27:05 it was not below 20 µM; with HLA-B*40:01 (setting [25]), not below 20 µM; in the experiment with HLA-B*46:01 [12], not below 20 µM; with HLA-B*48:01 it was not below 20 µM; with HLA-B*57:01 [4] (setting [25]) it was not below 20 µM. The Kd with HLA-B*58:01 (setting [25]) is not below 20 µM.

For GFPFFIMPK, the Kd in the experiment with HLA-A*02:03 was not below 20 µM; in the experiment with HLA-A*02:12 (setting [26]) it was not below 20 µM; with HLA-A*02:19 it was not below 20 µM; with HLA-A*11:01 [8] (setting [26]) it was 0.078 µM; with HLA-A*68:02 it was not below 20 µM; with HLA-A*02:01 [13] it was not below 20 µM. In addition, the Kd with HLA-A*26:01, in the experiment with HLA-A*69:01 [14], in the experiment with HLA-B*18:01 [15], with HLA-B*27:03, in the experiment with HLA-B*39:01 and with HLA-B*46:01 [16] was not below 20 µM each time. Further, the Kd with HLA-B*51:01 [17] and with HLA-B*57:01 [18] was not below 20 µM in each case.

On to MAMLADYFY, for which the Kd in the experiment with HLA-B*07:02 (setting [21]) is not below 20 µM; with HLA-B*15:01 (setting [22]) it was 0.012 µM; with HLA-B*51:01 [9] (setting [21]), not below 20 µM.

On to QTSSIEGAW, for which the Kd was 5.78 µM with HLA-B*15:17 (setting [27]), not below 20 µM in the experiment with HLA-B*57:01 [4] (setting [27]) and not below 20 µM with HLA-B*58:01 (setting [27]).

The term Kd denotes the concentration at which binding is half-saturated.
